In this assay the target is melanocortin-1 (MC1) receptor on B16/F1 murine melanoma cells (mouse (B16/F1 murine melanoma cells)) (UniProt Q01727). As to the kind of experiment: cell-based or functional assay.
melanocortin-1 (MC1) receptor on B16/F1 murine melanoma cells (mouse (B16/F1 murine melanoma cells)), sequence (Q01727 whole entry): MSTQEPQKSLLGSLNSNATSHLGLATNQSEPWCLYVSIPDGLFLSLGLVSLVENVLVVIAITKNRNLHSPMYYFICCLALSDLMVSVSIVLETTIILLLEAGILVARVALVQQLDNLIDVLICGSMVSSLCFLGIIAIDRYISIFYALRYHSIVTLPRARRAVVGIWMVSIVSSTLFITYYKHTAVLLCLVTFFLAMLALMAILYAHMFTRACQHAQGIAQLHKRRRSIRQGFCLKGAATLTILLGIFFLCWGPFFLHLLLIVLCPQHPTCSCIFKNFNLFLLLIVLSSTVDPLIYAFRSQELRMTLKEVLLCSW

As to 111In-DOTA-GENle-CycMSHhex (peptide), the tumor uptake in B16/F1 melanoma-bearing C57 mice at 2 h blocked by co-injection of non-radioactive NDP-MSH stood at 95.6%.

The substance 111In-DOTA-GGNle-CycMSHhex (peptide) returned a tumor uptake in B16/F1 melanoma-bearing C57 mice blocked by 10 µg (6.07 nmol) of non-radiolabeled NDP-MSH of 98%.
